Tests used:
[1] = Maleate model of AKI (FeS, SnPP, FeS+SnPP); assay type: in vivo, mice; conditions: IV 1 mg FeS and/or 1 μmole SnPP 18 hrs before IP Na maleate 800 mg/Kg; 18 hrs later
Excerpt: Effects of Fe sucrose (FeS)/tin protoporphyrin (SnPP) on AKI severity. Maleate model of AKI. When injected into rodents, maleate undergoes relatively selective proximal tubule cell uptake via organic anion transporters. Once intracellular accumulation occurs, maleate is a preferred substrate for succinyl-CoA:3-oxoacid CoA transferase. […] Ample levels of CoA are essential for fatty acid “activation”, allowing for their subsequent metabolism through the Krebs cycle, yielding ATP. In the absence of this process, proximal tubule ATP depletion and cell injury result. Additionally, maleate conjugates the sulfhydryl group of glutathione (GSH), culminating in GSH depletion and potential oxidant tubular stress.
The following experiment tested whether FeS, SnPP or combined FeS+SnPP can mitigate this form of acute kidney injury (AKI). Twenty seven mice were subjected to 200 μL IV tail injections of one of the following: 1) vehicle (phosphate buffered saline, PBS; n, 10); 2) 1 mg FeS (American Regent (Shirley, N.Y.; n, 3); 3) 1 μmole SnPP (Frontier Scientific, Logan, Utah; n 7), or FeS+SnPP, n, 7). Eighteen hrs later, all mice received an IP injection of Na maleate (800 mg/Kg; in 500 ul of PBS). […] The severity of kidney injury was assessed by determining plasma blood urea nitrogen (BUN) and plasma creatinine (PCr) concentrations.

[2] = system: heme oxygenase 1 (HO-1); assay: Renal cortical induction of HO-1 by FeS, SnPP and B12 (ELISA, RT-PCR); assay type: in vivo, mice
Method: Effects of FeS, SnPP, and B12 on renal cortical induction of heme oxygenase 1 (HO-1). The following experiments assessed the effects of FeS, SnPP, and B12 on the possible induction of the cytoprotective protein HO-1. To this end, mice were injected with each of these agents, as noted above. Either 4 or 18 hrs later, they were anesthetized and the kidneys were removed through a midline abdominal incision. The renal cortices were dissected on ice and then extracted for protein and mRNA. The samples were then assayed for HO-1 protein by ELISA, and HO-1 mRNA by RT-PCR, factored by GAPDH levels. Five normal mice provided control values.

[3] = system: HK-2 cells; assay: HK-2 cell injury by MTT assay; assay type: cell-based; conditions: equimolar Na nitrite added to 10 mg/ml myoglobin, 18 hr incubation
Method: HK-2 cells (a proximal tubule cell line derived from normal human kidney) were incubated in keratinocyte serum free medium either under normal (control) conditions or in the presence of 10 mg/mL horse skeletal muscle myoglobin or nitrited myoglobin (produced by equimolar Na nitrite addition to 10 mg/ml myoglobin). After 18 hr incubations, the severity of cell injury (% cell death) was assessed by MTT assay. Myoglobin induced 40% cell death (40% decrease in MTT cell uptake), compared to control incubated cells. Nitrite binding to myoglobin reduced cell death by 75%. Thus, nitrite binding is able to reduce myoglobin's cytotoxic effects.

[4] = system: Haptoglobin; assay: Liver haptoglobin mRNA and protein after N-Mgb, SnPP or both; assay type: in vivo, mice
Method: (§1) Thirty-two mice were divided into 4 equal groups: (1) control mice; (2) mice treated with 1 mg of N-Mgb injection (as a bolus through the tail vein); (3) mice treated with […] of SnPP (via tail vein); and (4) mice treated with combined N-Mgb 1 SnPP. After either 4 hours (n=16) or 18 hours (n=16), the mice were deeply anesthetized with pentobarbital (50 mg/kg), the abdomen was opened through a midline abdominal incision, and the kidneys were removed. To determine potential effects on extrarenal organs, a liver lobe and the heart were also removed. The tissues were iced and then extracted for protein and RNA (RNeasy Plus Mini; Qiagen, Valencia, Calif.) and subjected to enzyme linked immunosorbent assay (ELISA) and reverse transcriptase polymerase chain reaction (RT-PCR) for HO-1, haptoglobin, and IL-10 protein and messenger RNAs (mRNAs). Zager et al. J Am Soc Nephrol 2014;25:998-1012; Zager et al. Am J Physiol 2012;303:F139-48. As an assessment of renal function, control mice and the 18 hour after N-Mgb+SnPP—treated mice had blood urea nitrogen (BUN) and plasma creatinine levels measured. Additionally, transverse 10% formalin fixed kidney sections ([…]) were cut and stained with hematoxylin and eosin (H&E) and periodic acid Schiff (PAS) to further assess potential injury.

[5] = Serum creatinine after 2 hr subcutaneous infusion of N-myoglobin (constant SnPP); assay type: in vivo, mice; conditions: 2 hr subcutaneous infusion 1, 3, 6, 12, or 25 mg/Kg, SnPP constant 1 μmole; 18 hrs later
Method: Mice were subjected to a 2 hr subcutaneous infusion of 1, 3, 6, 12, or 25 mg/Kg of nitrited myoglobin (holding SnPP at a constant dose of 1 μmole). Eighteen hrs later, potential renal injury was assessed by measuring serum creatinine concentrations.
An obvious concern by applying this prophylactic strategy to patients is potential renal and/or extrarenal toxicities. […] Furthermore, it was previously documented in a cell culture system that nitrite addition markedly reduces myoglobin's cytotoxic effects by 75% (unpublished data, 2014). To assess the potential in vivo margin of safety for N-Mgb+SnPP (see Supplemental FIGs.), the maximal amount of N-Mgb that could be given to mice before nephrotoxicity was observed was tested. Up to 25 times the employed N-Mgb dose (with a constant SnPP dose) could be administered (over 2 hours) without induction of nephrotoxicity (normal BUN and creatinine, 18 hours later).

[6] = system: HO-1; assay: Liver HO-1 mRNA and protein after N-Mgb, SnPP or both; assay type: in vivo, mice
Method: as §1

[7] = system: IL-10; assay: Renal cortical IL-10 mRNA and protein after N-Mgb, SnPP or both; assay type: in vivo, mice
Method: as §1

[8] = system: IL-10; assay: Cardiac IL-10 mRNA and protein after N-Mgb, SnPP or both; assay type: in vivo, mice
Method: as §1

[9] = system: HO-1; assay: Renal cortical HO-1 mRNA (RT-PCR) and protein (ELISA) after N-Mgb, SnPP or both; assay type: in vivo, mice
Method: as §1

[10] = system: IL-10; assay: Liver IL-10 mRNA and protein after N-Mgb, SnPP or both; assay type: in vivo, mice
Method: as §1

[11] = Glycerol model of rhabdomyolysis-induced AKI; assay type: in vivo, mice; conditions: IV pretreatment 18 hours before glycerol; 18 hours after glycerol
Method: Assessments of cytoresistance. Glycerol model of rhabdomyolysis-induced AKI. Twenty mice were divided into 4 equal groups (controls, mice treated with N-Mgb, SnPP, and mice treated with N-Mgb+SnPP tail vein injections) as described previously. 18 hours later, the mice were briefly anesthetized with isoflurane and immediately injected with 9 mL/kg of 50% glycerol, administered in equally divided doses into each hind limb. At 18 hours after glycerol injection, the mice were anesthetized with pentobarbital, the abdomen was opened, a blood sample for BUN and creatinine assessments was obtained from the vena cava, and the kidneys were resected. The control post-glycerol group and the N-Mgb+SnPP—pretreated glycerol group had kidney sections stained with H&E.
Calculations and statistics. All values are given as the mean […] standard error of the mean. Statistical comparisons were made by unpaired Student's t test. If multiple comparisons were made, the Bonferroni correction was applied. The severity of renal histologic injury in the glycerol AKI model was graded on a […] (least to most severe tubular necrosis and cast formation observed). The histologic results were compared by Wlcoxon rank sum test. Statistical significance was taken as a P value of <0.05.

[12] = system: Haptoglobin; assay: Renal cortical haptoglobin mRNA and protein after N-Mgb, SnPP or both; assay type: in vivo, mice
Method: as §1

[13] = system: Haptoglobin; assay: Cardiac haptoglobin mRNA and protein after N-Mgb, SnPP or both; assay type: in vivo, mice
Method: as §1

[14] = system: HO-1; assay: Cardiac HO-1 mRNA and protein after N-Mgb, SnPP or both; assay type: in vivo, mice
Method: as §1

[15] = renal cortex, 4 h after Rx treatment

Fe sucrose [FeS]
reductions in BUN/PCr concentrations, maleate-induced AKI [1]: Neither SnPP alone nor FeS alone significantly altered the severity of renal injury
renal cortical HO-1 protein levels ([2]; 4 hr post IV injection): marked HO-1 protein increases
renal cortical HO-1 protein levels ([2]; 18 hr time point): remained elevated at the 18 hr time point, particularly in the case of FeS administration
renal cortical HO-1 protein levels ([2]; 18 hr time point, listed as Fe sucrose): persists for 18 hrs

cyanocobalamin [vitamin B12]
renal cortical HO-1 protein levels ([2]; 4 hr post IV injection): marked HO-1 protein increases
renal cortical HO-1 protein levels ([2]; 18 hr time point): persists for 18 hrs

B1: N-Mgb: horse skeletal muscle myoglobin converted into a nitrited form by equimolar Na nitrite (protein, UniProt P68082 2-154, looked up)
Myoglobin: GLSDGEWQQVLNVWGKVEADIAGHGQEVLIRLFTGHPETLEKFDKFKHLKTEAEMKASEDLKKHGTVVLTALGGILKKKGHHEAELKPLAQSHATKHKIPIKYLEFISDAIIHVLHSKHPGDFGADAQGAMTKALELFRNDIAAKYKELGFQG
modifications: nitrited with sodium nitrite
reduction of myoglobin-induced cell death by nitrite binding [3]: 75%
Liver mRNA Haptoglobin ([4]; 4 h after Rx treatment): 0.98 ± 0.1
Liver protein Haptoglobin ([4]; 4 h after Rx treatment): 359.5 ± 39.6
Liver mRNA Haptoglobin ([4]; 18 h after Rx treatment): 0.91 ± 0.07
Liver protein Haptoglobin ([4]; 18 h after Rx treatment): 358.8 ± 32.8
serum creatinine concentrations (potential renal injury) [5]: No significant increase
Liver mRNA HO-1 ([6]; 4 h after Rx treatment): 1.83 ± 0.33
Liver protein HO-1 protein ([6]; 4 h after Rx treatment): 17 ± 2
Liver mRNA HO-1 ([6]; 18 h after Rx treatment): 0.82 ± 0.07
Liver protein HO-1 protein ([6]; 18 h after Rx treatment): 14.9 ± 0.3
increase in renal IL-10 mRNA ([7]; 4 hours after injection): either minimal or no impact
Kidney mRNA cortex IL-10 ([7]; 18 h after Rx treatment): 0.43 ± 0.10
Kidney protein IL-10 ([7]; 18 h after Rx treatment): 292 ± 54
increase in renal IL-10 protein ([7]; 18 hours after injection): absence of IL-10 protein increases
Kidney IL-10 (protein) [7, 15]: 265 ± 54
Kidney mRNA IL-10 [7, 15]: 1.45 ± 0.6
Cardiac mRNA IL-10 ([8]; 4 h after Rx treatment): 0.86 ± 0.11
Cardiac protein IL-10 ([8]; 4 h after Rx treatment): 21 ± 12
Cardiac mRNA IL-10 ([8]; 18 h after Rx treatment): 0.67 ± 0.10
Cardiac protein IL-10 ([8]; 18 h after Rx treatment): 14.5 ± 10^
increase in renal HO-1 mRNA ([9]; 4 hours after IV injection, vs controls): only modest increases
Kidney mRNA cortex HO-1 ([9]; 18 h after Rx treatment): 0.58 ± 0.18
Kidney protein HO-1 ([9]; 18 h after Rx treatment): 30 ± 6
increase in renal HO-1 protein ([9]; 18 hours post-treatment, vs control values): only relatively small HO-1 protein increases
Kidney HO-1 protein [9, 15]: 36.1 ± 2.9
Kidney mRNA HO-1 [9, 15]: 3.38 ± 0.38
Liver mRNA IL-10 ([10]; 4 h after Rx treatment): 0.67 ± 0.46
Liver protein IL-10 ([10]; 4 h after Rx treatment): 286 ± 32
Liver mRNA IL-10 ([10]; 18 h after Rx treatment): 0.06 ± 0.02
Liver protein IL-10 ([10]; 18 h after Rx treatment): 5988 ± 549
protection against glycerol-induced AKI (BUN/creatinine levels) [11]: modest protection
Kidney mRNA cortex Haptoglobin ([12]; 18 h after Rx treatment): 0.24 ± 0.04
Kidney protein Haptoglobin ([12]; 18 h after Rx treatment): 183.8 ± 20.4
increase in renal cortical haptoglobin protein levels ([12]; 18 hours after injections): comparably increased
Kidney Haptoglobin (protein) [12, 15]: 17.6 ± 1^
Kidney mRNA Haptoglobin [12, 15]: 1.94 ± 0.31
Cardiac mRNA Haptoglobin ([13]; 4 h after Rx treatment): 0.75 ± 0.10
Cardiac protein Haptoglobin ([13]; 4 h after Rx treatment): 40.4 ± 8.6
Cardiac mRNA Haptoglobin ([13]; 18 h after Rx treatment): 0.53 ± 0.21
Cardiac protein Haptoglobin ([13]; 18 h after Rx treatment): 249.6 ± 15.0
Cardiac Protein HO-1 ([14]; 4 h after Rx treatment): 1.64 ± 0.19
Cardiac mRNA HO-1 ([14]; 4 h after Rx treatment): 0.09 ± 0.01
Cardiac mRNA HO-1 ([14]; 18 h after Rx treatment): 0.08 ± 0.01

— patent publication US9844563B2, “Compositions, kits, and methods to induce acquired cytoresistance using stress protein inducers” (FRED HUTCHINSON CANCER RESEARCH CENTER, priority 2014, dated 2017)
